Experimental data from article PMC8917853, “Synthesis and evaluation of ^99mTc-DOTA-ARA-290 as potential SPECT tracer for targeting cardiac ischemic region” (Iranian Journal of Basic Medical Sciences, 2021).
Like-named read-outs stand apart in the source and are kept apart here. Non-standard residues stand in square brackets, D forms with d. Residues, ends and D or L forms follow the SMILES beside them. *: point of attachment. DOTA = O=C(O)CN1CCN(CC(=O)O)CCN(CC(=O)*)CCN(CC(=O)O)CC1; X1 = CN(C)c1ccc(/N=N/c2ccc(C(=O)*)cc2)cc1; pGlu = O=C1CC[C@@H](C(=O)O)N1

What was measured:
[1] = sodium chloride 0.9%, ambient temperature, up to 6 hr, TLC, specific activity 18.5 MBq/nmol, mean n=3
Procedure: (§1) As an in vitro stability evaluation, radiolabeled peptides (specific activity= 18.5 MBq/nmol) were added to sodium chloride 0.9 % isotonic solution ([24]). After incubation at ambient temperature, samples were taken out at 0.06, 0.5, 1, 2, 4, and 6 hr. The radiochemical purity of the mixture was investigated by a TLC stripe. To survey biostability, 100 μl of the labeled compound was added to fresh human serum (1 ml) and incubated (37 °C, 5% CO2) at different time points (4, 30, 60, 120, 240, and 360 min). 100 μl aliquots of serum samples were then incubated with 100 μl of ethanol. Samples were centrifuged at 5000 rpm for 5 min at 37 °C and 20 µl supernatant was removed to assess the degradation of ^99mTc labeled peptide by TLC.

in vitro = conditions: human, fresh human serum
Procedure: as §1

[2] = target: T1, EPOR-BcR receptor on H9c2 myocardial cells (Rattus norvegicus, UniProt Q07303+Q78ZF5); assay: In vitro hypoxia test: binding to hypoxic vs normoxic H9c2 myocardial cells; type: cell-based; conditions: for binding to hypoxic cells relative to normoxic cells: H9c2 cells, 250 pmol radiopeptide, 37 °C, triplicate
T1 construct: endogenous in cells; host or cells: H9c2 myocardial cells (hypoxic vs normoxic culture)
T1 sequence (Q07303 25-507): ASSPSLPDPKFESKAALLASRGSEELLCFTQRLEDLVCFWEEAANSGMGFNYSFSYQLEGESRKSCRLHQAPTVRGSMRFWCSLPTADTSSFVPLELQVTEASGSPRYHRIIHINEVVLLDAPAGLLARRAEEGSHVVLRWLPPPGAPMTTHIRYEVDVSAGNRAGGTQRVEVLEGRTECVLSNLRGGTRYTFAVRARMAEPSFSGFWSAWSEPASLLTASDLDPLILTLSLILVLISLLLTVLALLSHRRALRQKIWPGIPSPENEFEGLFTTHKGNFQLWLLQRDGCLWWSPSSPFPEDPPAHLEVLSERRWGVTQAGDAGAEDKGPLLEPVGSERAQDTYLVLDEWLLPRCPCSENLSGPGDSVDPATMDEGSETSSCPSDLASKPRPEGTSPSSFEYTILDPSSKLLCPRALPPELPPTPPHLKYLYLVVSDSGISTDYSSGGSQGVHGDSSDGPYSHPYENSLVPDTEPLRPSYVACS
T1 sequence (Q78ZF5 29-896): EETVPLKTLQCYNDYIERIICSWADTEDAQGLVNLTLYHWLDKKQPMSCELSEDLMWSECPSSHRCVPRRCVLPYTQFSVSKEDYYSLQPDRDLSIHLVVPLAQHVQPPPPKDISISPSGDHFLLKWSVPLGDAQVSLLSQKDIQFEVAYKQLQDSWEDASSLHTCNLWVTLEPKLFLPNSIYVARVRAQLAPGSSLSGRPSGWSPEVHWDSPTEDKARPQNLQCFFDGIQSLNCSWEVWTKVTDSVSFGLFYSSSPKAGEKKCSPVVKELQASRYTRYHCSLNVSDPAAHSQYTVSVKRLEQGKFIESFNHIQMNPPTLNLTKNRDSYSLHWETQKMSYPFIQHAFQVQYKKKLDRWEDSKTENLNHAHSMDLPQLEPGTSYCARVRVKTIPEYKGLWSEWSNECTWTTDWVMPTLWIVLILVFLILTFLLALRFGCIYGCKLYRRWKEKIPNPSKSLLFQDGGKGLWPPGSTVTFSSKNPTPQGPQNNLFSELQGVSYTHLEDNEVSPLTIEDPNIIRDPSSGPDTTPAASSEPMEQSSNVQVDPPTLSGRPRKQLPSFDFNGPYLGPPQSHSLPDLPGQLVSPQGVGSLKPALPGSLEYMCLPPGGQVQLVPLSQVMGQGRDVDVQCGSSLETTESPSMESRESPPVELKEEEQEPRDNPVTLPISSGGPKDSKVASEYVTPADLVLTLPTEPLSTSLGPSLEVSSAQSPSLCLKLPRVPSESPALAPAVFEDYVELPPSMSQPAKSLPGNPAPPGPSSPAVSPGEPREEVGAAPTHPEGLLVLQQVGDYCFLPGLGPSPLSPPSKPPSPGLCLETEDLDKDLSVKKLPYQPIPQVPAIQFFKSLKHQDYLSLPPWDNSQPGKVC
Procedure: H9c2 myocardial cells were separated into three groups. The normoxic control group (negative EPOR-BcR receptor) was cultured in a normoxic (20% O2) culture medium. Hypoxic group (positive EPOR-BcR receptor) was cultured in a different time interval (1-4 hr) hypoxic culture condition (5% CO2 and 2% O2) and blocking test (specific binding assay) in the hypoxic condition. […] The cells for triplicate were placed inside confocal plates (Costar) at a density of 1 × 10^5 per well, then treated with almost 250 pmol of ^99mTc-DOTA-(Lys-Dabcyl^6,Phe^7)-ARA-290 subject to 0.025 MBq at 37 °C. Incubation was disrupted with 1 ml of chilled PBS. Afterward, the cells were separated by […] to measure the cell-bound level of ^99mTc-DOTA-(Lys-Dabcyl^6,Phe^7)-ARA-290 by a scintillator. EPOR-BcR receptor blocking was done by using 50-fold extra of the unlabeled peptide in 30 min before the injection of the labeled peptide.

in vivo = assay: in vivo
Procedure: To study ischemia-induced myocardial injuries, male Wistar rats weighing 200~250 gr were sorted into three groups of four (n=4): (1) normal group, (2) Ischemic group, and (3) sham group. The rats were anesthetized by intraperitoneal (IP) administration of 3 % pentobarbital sodium (60 mg/kg). Positive pressure mechanical ventilation was made by a Shinano respirator (SN-480–4) and an open-heart operation was done at the level of the left 4th–5th ribs. The rats received intramuscular injections of penicillin sodium (0.8 mg/g) to prevent infection. Myocardial ischemia was induced by a slipknot (4–0 silk suture) around the LAD about 2–3 mm near its origin. After 30-min ischemia, the slipknot was loosened to restore normal circulation for reperfusion ([28]). […] In the same group, heart surgery was performed without LAD artery occlusion.
The biodistribution of radiopeptide among tissues was measured by sacrifice of rats for each elected interval (30, 60, 180, and 360 min) post-injection. Various tissues, including heart, bone, kidneys, muscle, salivary glands, spleen, and intestines, were removed immediately and rinsed with saline solution to clean their residual blood. Moreover, blood samples for monitoring radioactivity were taken from the heart by a heparin-impregnated syringe after sacrificing. The percentage of injected activity per gram (%ID/g) for different organs was measured by dividing the activity of each organ per decayed total injected activity and mass of each organ. Moreover, in ischemic rats, 100 μg unlabeled peptide was co-injected with radiolabeled peptide to analyze the in vivo blocking test.

cardiac ischemic region = assay: Planar SPECT scintigraphy in ischemic and normal rats; type: in vivo, rat; conditions: 200 MBq
Procedure: 30 and 90 min post-injection of ^99mTc-DOTA-(Lys-Dabcyl^6,Phe^7)-ARA-290 (200 MBq) into ischemic and normal rats, planar images were captured by a dual-head SPECT system (E.cam, Siemens, Germany) that was arranged with low energy high-resolution collimators, a 128*128 matrix size, and a 20% energy window set at 140 keV ([29]).

[3] = cited from earlier work
From the text: Myocardial infarction, the most prominent cardiovascular disease outcome (CVD), is the main reason for morbidity and death in the world ([1]). Immediate and precise diagnosis of cardiac hypoxia and ischemia is very critical and crucial for appropriate treatment and prevention of myocardial damage ([2]). Evaluation of cardiac ischemic biomarkers in blood plasma, including Creatine Kinase-MB, cardiac troponin, and lactate dehydrogenase (LDH) is valuable for diagnosis; however, their levels increase in blood after a delay of time ([3]).

[4] = metabolic stability; 41 (Yang et al.); cited from earlier work
From the text: Myocardial SPECT imaging as a nuclear cardiological scan has been used in many procedures for ischemic heart diseases ([36]). In the mid-1970s, […]-201 (201TI) imaging has been used to ascertain regional myocardial perfusion models at rest, stress, and acute myocardial infarction, but because of the concerns about medical exposure to ionizing radiation and lower image quality, ^201Tl was substituted by ^99mTc-labeled perfusion agents (^99mTc-sestamibi and ^99mTc-tetrofosmin). However, these SPECT agents show poor pharmacokinetic features with reducing uptake with higher flows ([37], [38]) ...

[5] = male, Wistar, rat, blood, iv, 20 MBq, total radioactivity
[6] = male, Wistar, rat, bone, iv, 20 MBq, total radioactivity
[7] = male, Wistar, rat, heart, iv, 20 MBq, total radioactivity
[8] = male, Wistar, rat, intestines, iv, 20 MBq, total radioactivity
[9] = male, Wistar, rat, ischemic heart / lung, iv, 20 MBq, total radioactivity
[10] = male, Wistar, rat, ischemic heart, iv, 20 MBq, total radioactivity
[11] = male, Wistar, rat, kidneys, iv, 20 MBq, total radioactivity
[12] = male, Wistar, rat, liver, iv, 20 MBq, total radioactivity
[13] = male, Wistar, rat, lung, iv, 20 MBq, total radioactivity
[14] = male, Wistar, rat, muscle, iv, 20 MBq, total radioactivity
[15] = male, Wistar, rat, salivary gland and thyroid, iv, 20 MBq, total radioactivity
[16] = male, Wistar, rat, spleen, iv, 20 MBq, total radioactivity
[17] = male, Wistar, rat, stomach, iv, 20 MBq, total radioactivity

## CC(C)C[C@H](NC(=O)[C@H](Cc1ccccc1)NC(=O)[C@H](CCCCNC(=O)c1ccc(/N=N/c2ccc(N(C)C)cc2)cc1)NC(=O)[C@H](CCC(=O)O)NC(=O)[C@H](CC(C)C)NC(=O)[C@H](CCC(N)=O)NC(=O)[C@H](CCC(=O)O)NC(=O)[C@H](CCC(=O)O)NC(=O)CN1CCN(CC(=O)O)CCN(CC(=O)O)CCN(CC(=O)O)CC1)C(=O)N[C@@H](CC(N)=O)C(=O)N[C@@H](CO)C(=O)N[C@@H](CO)C(=O)O [99mTc-DOTA-(Lys-Dabcyl6,Phe7)-ARA-290, metal not drawn] ({DOTA}-EEQLEK(X1)FLNSS-OH; C-terminus assumed)
[1]
  saline stability of radiopeptide (radiochemical purity remaining): 95%
In vitro
  remaining at 4 h: 94%
  remaining at 6 h: 93%
[2]; hypoxia 2% O2 vs normoxia 20% O2, 1 hr
  binding to hypoxic cells relative to normoxic cells: 3 fold
[2]; hypoxia 2% O2 vs normoxia 20% O2, 4 hr
  binding to hypoxic cells relative to normoxic cells: ~5 fold
[2]; hypoxic H9c2 cells, 50 mol excess of unlabeled peptide 30 min before radiopeptide
  binding to hypoxic cells in blocking test: the same result was obtained for the normoxic cells
[2]; normoxic 20% O2, H9c2 cells
  binding affinity to H9c2 cells under normoxic situations: very low
In vivo; 60 min p.i., block with 100 μg unlabeled peptide, ischemic rats
  Isch heart/Th ratio: 1.04
In vivo; 180 min p.i., ischemic rats
  Isch heart/Lung ratio: 2.61
  Isch heart/Th ratio: 4.68
In vivo; 360 min p.i., ischemic rats
  Isch heart/Th ratio: 6.01
In vivo; [5]
  tissue uptake at 0.5 h: 1.52 ± 0.29 %ID/g
  tissue uptake at 1 h: 0.96 ± 0.16 %ID/g
  tissue uptake at 3 h: 0.44 ± 0.28 %ID/g
  tissue uptake at 6 h: 0.12 ± 0.87 %ID/g
In vivo; [6]
  tissue uptake at 0.5 h: 0.75 ± 0.41 %ID/g
  tissue uptake at 1 h: 0.53 ± 0.21 %ID/g
  tissue uptake at 3 h: 0.32 ± 0.21 %ID/g
  tissue uptake at 6 h: 0.16 ± 0.29 %ID/g
In vivo; [7]
  tissue uptake at 0.5 h: 0.62 ± 0.15 %ID/g
  tissue uptake at 1 h: 0.31 ± 0.18 %ID/g
  tissue uptake at 3 h: 0.21 ± 0.32 %ID/g
  tissue uptake at 6 h: 0.14 ± 0.23 %ID/g
In vivo; [8]
  tissue uptake at 0.5 h: 1.73 ± 0.1 %ID/g
  tissue uptake at 1 h: 3.22 ± 0.78 %ID/g
  tissue uptake at 3 h: 2.89 ± 0.08 %ID/g
  tissue uptake at 6 h: 2.35 ± 0.25 %ID/g
In vivo; [9]
  tissue to tissue ratio at 0.5 h: 3.65
  tissue to tissue ratio at 1 h: 4.31
  tissue to tissue ratio at 6 h: 3.37
In vivo; [10]
  tissue uptake at 0.5 h: 3.44 ± 0.32 %ID/g
  tissue uptake at 1 h: 3.28 ± 0.52 %ID/g
  tissue uptake at 3 h: 1.36 ± 0.44 %ID/g
  tissue uptake at 6 h: 1.08 ± 0.94 %ID/g
In vivo; [11]
  tissue uptake at 0.5 h: 10.6 ± 0.48 %ID/g
  tissue uptake at 1 h: 14.29 ± 0.01 %ID/g
  tissue uptake at 3 h: 8.58 ± 0.1 %ID/g
  tissue uptake at 6 h: 4.06 ± 0.43 %ID/g
In vivo; [12]
  tissue uptake at 0.5 h: 3.55 ± 0.21 %ID/g
  tissue uptake at 1 h: 4.28 ± 0.15 %ID/g
  tissue uptake at 3 h: 3.49 ± 0.09 %ID/g
  tissue uptake at 6 h: 2.08 ± 0.28 %ID/g
In vivo; [13]
  tissue uptake at 0.5 h: 0.94 ± 0.58 %ID/g
  tissue uptake at 1 h: 0.76 ± 0.77 %ID/g
  tissue uptake at 3 h: 0.52 ± 0.19 %ID/g
  tissue uptake at 6 h: 0.32 ± 0.22 %ID/g
In vivo; [14]
  tissue uptake at 0.5 h: 0.53 ± 0.42 %ID/g
  tissue uptake at 1 h: 0.42 ± 0.84 %ID/g
  tissue uptake at 3 h: 0.25 ± 0.87 %ID/g
  tissue uptake at 6 h: 0.17 ± 0.31 %ID/g
In vivo; [15]
  tissue uptake at 0.5 h: 0.79 ± 0.41 %ID/g
  tissue uptake at 1 h: 0.62 ± 0.15 %ID/g
  tissue uptake at 3 h: 0.29 ± 0.29 %ID/g
  tissue uptake at 6 h: 0.18 ± 0.81 %ID/g
In vivo; [16]
  tissue uptake at 0.5 h: 2.56 ± 0.21 %ID/g
  tissue uptake at 1 h: 2.31 ± 0.12 %ID/g
  tissue uptake at 3 h: 1.16 ± 0.22 %ID/g
  tissue uptake at 6 h: 0.44 ± 0.29 %ID/g
In vivo; [17]
  tissue uptake at 0.5 h: 0.88 ± 0.44 %ID/g
  tissue uptake at 1 h: 0.71 ± 0.31 %ID/g
  tissue uptake at 3 h: 0.54 ± 0.28 %ID/g
  tissue uptake at 6 h: 0.32 ± 0.19 %ID/g
Cardiac ischemic region; cardiac ischemic rats, planar images at 30 and 90 min post-injection
  scintigraphy: ischemic region uptake: considerable ischemic region uptake
Cardiac ischemic region; normal rat, 30 min post-injection
  scintigraphy: cardiac accumulation: not detectable

## [pGlu]EQLERALNSS-OH [ARA-290, 11 amino acid nonhematopoietic peptide derived from helix B of EPO]
[3]; in rabbits
  half-life: roughly 2 min
[3]; in rats
  half-life: roughly 2 min
[4]
  in vivo stability: 2 min
